Source: US20180162928A1 (Janssen / Centocor, published 2018)

B1: ISOP194BR9P1A9 (designed binder, not shown: small tags and cut ends)
chain: LPAPKNLVVSRVTEDSARLSWFNADEEYFDSFLIQYQESEKVGEAIVLTVPGSERSYDLTGLKPGTEYTVSIYGVYDRKVKFVQSNPLSAIFTT
notes: FN3 domain; E. coli lysate in the ELISA
B2: ISOP194AR9P1H10 (designed binder, not shown: small tags and cut ends)
chain: LPAPKNLVISRVTEDSARLSWPAHYHSAFFDSFLIQYQESEKVGEAIVLTVPGSERSYDLTGLKPGTEYTVSIYGVYQRKVEFHSNPLSAIFTT
notes: as for B1
B3: ISOP121BR5P1D1 (designed binder, not shown: small tags and cut ends)
chain: LPAPKNLVVSRVTEDSARLSWKWGGEFFDSFLIQYQESEKVGEAIVLTVPGSERSYDLTGLKPGTEYTVSIYGVYQRNWHHWYSNPLSAIFTT
notes: as for B1
B4: ISOP121BR5P1C9 (designed binder, not shown: small tags and cut ends)
chain: LPAPKNLVVSRVTEDSARLSWIWPDKHEFFDSFLIQYQESEKVGEAIVLTVPGSERSYDLTGLKPGTEYTVSIYGVYDRKYANWSSNPLSAIFTT
notes: as for B1
B5: ISOP121GR5P1G11 (designed binder, not shown: small tags and cut ends)
chain: LPAPKNLVVSRVTEDSARLSWTAPDAAFDSFQINYHEYGQNGEAIQLIVPGSERSYDLTGLKPGTEYGVWIWGVKGGIRSKPLWAFFTT
notes: as for B1
B6: ISOP121BR5P1C3 (designed binder, not shown: small tags and cut ends)
chain: LPAPKNLVVSRVTEDSARLSWASARDYFDSFLIQYQESEKVGEAIVLTVPGSERSYDLTGLKPGTEYTVSIYGVLAIAQITHWFSNPLSAIFTT
notes: as for B1
B7: ISOP121ER5P1E7 (designed binder, not shown: small tags and cut ends)
chain: LPAPKNLVVSRVTEDSARLSWTAPDAAFDSFTIGYTETPPRGEAIVLTVPGSERSYDLTGLKPGTKYYVSILGVKGGLGSWPLSAIFTT
notes: as for B1

Target: T1, recombinant biotinylated PD-L1 (rhPD-L1/Fc Chimera, R&D Systems 156-B7) (human, UniProt Q9NZQ7 19-238, biotinylated (sites not given))
T1 construct: Bought Fc chimera; also called human PD-L1
Assay: ELISA, lysate on plate-bound antigen
Procedure, shortened: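 On streptavidin plates coated with biotinylated PD-L1 (unrelated Fc-fusion protein and HSA as negative controls), diluted lysate was applied for 1 h. Bound FN3 domains detected with HRP-conjugated anti-FN3 antibody and POD substrate.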

T1 sequence (Q9NZQ7 19-238, change not shown): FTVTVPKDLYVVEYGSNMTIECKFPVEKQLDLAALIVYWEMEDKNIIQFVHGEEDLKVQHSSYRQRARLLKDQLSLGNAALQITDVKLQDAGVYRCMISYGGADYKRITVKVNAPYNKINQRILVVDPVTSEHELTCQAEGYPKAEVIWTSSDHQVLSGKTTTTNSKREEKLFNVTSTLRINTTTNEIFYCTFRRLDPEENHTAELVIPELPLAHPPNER

Binder | ELISA PD-L1 Fc (RSU)
B1 | 1.9e+07
B2 | 5.21e+06
B3 | 186000
B4 | 226000
B5 | 240000
B6 | 177000
B7 | 251000

Target: unrelated Fc-fused recombinant protein
Assay: ELISA, lysate on plate-bound antigen

Binder | ELISA Fc Control (RSU)
B1 | 2320
B2 | 4400

Target: human serum albumin (human) (UniProt P02768)
Assay: ELISA, lysate on plate-bound antigen

human serum albumin (human), sequence (P02768 25-609 limits assumed): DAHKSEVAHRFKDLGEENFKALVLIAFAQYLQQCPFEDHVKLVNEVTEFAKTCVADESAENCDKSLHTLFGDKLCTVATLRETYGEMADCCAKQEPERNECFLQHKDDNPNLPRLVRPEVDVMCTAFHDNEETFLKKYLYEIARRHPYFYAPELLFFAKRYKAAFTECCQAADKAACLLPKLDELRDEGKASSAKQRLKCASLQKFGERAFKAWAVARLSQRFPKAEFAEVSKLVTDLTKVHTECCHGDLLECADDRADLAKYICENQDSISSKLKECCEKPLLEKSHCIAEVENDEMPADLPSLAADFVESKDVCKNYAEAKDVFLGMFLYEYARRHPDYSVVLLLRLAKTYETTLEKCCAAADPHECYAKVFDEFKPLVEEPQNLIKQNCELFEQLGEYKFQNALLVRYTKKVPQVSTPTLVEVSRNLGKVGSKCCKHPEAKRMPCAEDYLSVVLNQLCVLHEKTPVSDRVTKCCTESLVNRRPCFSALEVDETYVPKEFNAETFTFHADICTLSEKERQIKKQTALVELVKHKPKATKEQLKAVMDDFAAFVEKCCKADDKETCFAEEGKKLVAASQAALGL

Binder | ELISA HSA (RSU)
B3 | 960
B4 | 1040
B5 | 1040
B6 | 480
B7 | 560

Target: unrelated Fc-fused recombinant protein
Assay: ELISA, lysate on plate-bound antigen
Remark: another data set of the same source

Binder | ELISA Fc Control (RSU)
B3 | 1040
B4 | 1120
B5 | 960
B6 | 640
B7 | 480
